# Molecular target: Cluster of Differentiation 147 (CD147) (human)
# Test: single-molecule force spectroscopy (AFM)
# Cluster of Differentiation 147 (CD147) (human), sequence (P35613 other isoform, or with tags, fused parts or gaps): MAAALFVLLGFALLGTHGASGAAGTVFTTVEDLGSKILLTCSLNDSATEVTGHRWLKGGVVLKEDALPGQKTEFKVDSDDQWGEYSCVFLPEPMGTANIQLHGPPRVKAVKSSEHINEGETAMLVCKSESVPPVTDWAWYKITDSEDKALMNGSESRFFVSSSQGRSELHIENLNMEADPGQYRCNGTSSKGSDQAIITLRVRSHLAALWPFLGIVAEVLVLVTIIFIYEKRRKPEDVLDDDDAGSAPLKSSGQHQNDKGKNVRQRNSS
substance,measurement,value
Full length Spike Protein (SARS-CoV-2) (from UniProt P0DTC2) (natural protein),mean adhesion force,41.9 pN
same,mean adhesion force (tip contact time 0 s),38.8 pN
same,mean adhesion force at 37 °C,46.2 pN

# From publication PMC12368639
